Sequences and labels used below:
B1: CE115HA000 N82aD one-arm antibody (antibody, human IgG1, kappa, L234A L235A, N297A, name in Kabat numbering)
heavy: QVQLVESGGGVVQPGRSLRLSCAASGFTFSNAWMHWVRQAPGKGLEWVAQIKAKSNNYATYYAESVKGRFTISRDDSKNSLYLQMDSLKTEDTAVYYCRYVHYGAYYGVDAWGQGTTVTVSSASTKGPSVFPLAPSSKSTSGGTAALGCLVKDYFPEPVTVSWNSGALTSGVHTFPAVLQSSGLYSLSSVVTVPSSSLGTQTYICNVNHKPSNTKVDKKVEPKSCDKTHTCPPCPAPEAAGGPSVFLFPPKPKDTLMISRTPEVTCVVVDVSHEDPEVKFNWYVDGVEVHNAKTKPREEQYASTYRVVSVLTVLHQDWLNGKEYKCKVSNKALPAPIEKTISKAKGQPREPQVYTLPPSRCELTKNQVSLSCAVKGFYPSDIAVEWESNGQPENNYKTTPPVLDSDGSFFLVSKLTVDKSRWQQGNVFSCSVMHEALHNHYTQKSLSLSPDYKDDDDK
chain: EPKSSDKTHTCPPCPAPELLGGPSVFLFPPKPKDTLMISRTPEVTCVVVDVSHEDPEVKFNWYVDGVEVHNAKTKPREEQYNSTYRVVSVLTVLHQDWLNGKEYKCKVSNKALPAPIEKTISKAKGQPREPQVCTLPPSRDELTKNQVSLWCLVKGFYPSDIAVEWESNGQPENNYKTTPPVLDSDGSFFLYSKLTVDKSRWQQGNVFSCSVMHEALHNRYTQKSLSLSP
light: DIVMTQSPLSLPVTPGEPASISCRSSQSLVHSNRNTYLHWYQQKPGQAPRLLIYKVSNRFSGVPDRFSGSGSGTDFTLKISRVEAEDVGVYYCGQGTQVPYTFGQGTKLEIKRTVAAPSVFIFPPSDEQLKSGTASVVCLLNNFYPREAKVQWKVDNALQSGNSQESVTEQDSKDSTYSLSSTLTLSKADYEKHKVYACEVTHQGLSSPVTKSFNRGEC
B2: CE115HA000 Q50D one-arm antibody (antibody, human IgG1, kappa, L234A L235A, N297A, name in Kabat numbering)
heavy: QVQLVESGGGVVQPGRSLRLSCAASGFTFSNAWMHWVRQAPGKGLEWVADIKAKSNNYATYYAESVKGRFTISRDDSKNSLYLQMNSLKTEDTAVYYCRYVHYGAYYGVDAWGQGTTVTVSSASTKGPSVFPLAPSSKSTSGGTAALGCLVKDYFPEPVTVSWNSGALTSGVHTFPAVLQSSGLYSLSSVVTVPSSSLGTQTYICNVNHKPSNTKVDKKVEPKSCDKTHTCPPCPAPEAAGGPSVFLFPPKPKDTLMISRTPEVTCVVVDVSHEDPEVKFNWYVDGVEVHNAKTKPREEQYASTYRVVSVLTVLHQDWLNGKEYKCKVSNKALPAPIEKTISKAKGQPREPQVYTLPPSRCELTKNQVSLSCAVKGFYPSDIAVEWESNGQPENNYKTTPPVLDSDGSFFLVSKLTVDKSRWQQGNVFSCSVMHEALHNHYTQKSLSLSPDYKDDDDK
chain: EPKSSDKTHTCPPCPAPELLGGPSVFLFPPKPKDTLMISRTPEVTCVVVDVSHEDPEVKFNWYVDGVEVHNAKTKPREEQYNSTYRVVSVLTVLHQDWLNGKEYKCKVSNKALPAPIEKTISKAKGQPREPQVCTLPPSRDELTKNQVSLWCLVKGFYPSDIAVEWESNGQPENNYKTTPPVLDSDGSFFLYSKLTVDKSRWQQGNVFSCSVMHEALHNRYTQKSLSLSP
light: DIVMTQSPLSLPVTPGEPASISCRSSQSLVHSNRNTYLHWYQQKPGQAPRLLIYKVSNRFSGVPDRFSGSGSGTDFTLKISRVEAEDVGVYYCGQGTQVPYTFGQGTKLEIKRTVAAPSVFIFPPSDEQLKSGTASVVCLLNNFYPREAKVQWKVDNALQSGNSQESVTEQDSKDSTYSLSSTLTLSKADYEKHKVYACEVTHQGLSSPVTKSFNRGEC
B3: CE115HA000 Q50A one-arm antibody (antibody, human IgG1, kappa, L234A L235A, N297A, name in Kabat numbering)
heavy: QVQLVESGGGVVQPGRSLRLSCAASGFTFSNAWMHWVRQAPGKGLEWVAAIKAKSNNYATYYAESVKGRFTISRDDSKNSLYLQMNSLKTEDTAVYYCRYVHYGAYYGVDAWGQGTTVTVSSASTKGPSVFPLAPSSKSTSGGTAALGCLVKDYFPEPVTVSWNSGALTSGVHTFPAVLQSSGLYSLSSVVTVPSSSLGTQTYICNVNHKPSNTKVDKKVEPKSCDKTHTCPPCPAPEAAGGPSVFLFPPKPKDTLMISRTPEVTCVVVDVSHEDPEVKFNWYVDGVEVHNAKTKPREEQYASTYRVVSVLTVLHQDWLNGKEYKCKVSNKALPAPIEKTISKAKGQPREPQVYTLPPSRCELTKNQVSLSCAVKGFYPSDIAVEWESNGQPENNYKTTPPVLDSDGSFFLVSKLTVDKSRWQQGNVFSCSVMHEALHNHYTQKSLSLSPDYKDDDDK
chain: EPKSSDKTHTCPPCPAPELLGGPSVFLFPPKPKDTLMISRTPEVTCVVVDVSHEDPEVKFNWYVDGVEVHNAKTKPREEQYNSTYRVVSVLTVLHQDWLNGKEYKCKVSNKALPAPIEKTISKAKGQPREPQVCTLPPSRDELTKNQVSLWCLVKGFYPSDIAVEWESNGQPENNYKTTPPVLDSDGSFFLYSKLTVDKSRWQQGNVFSCSVMHEALHNRYTQKSLSLSP
light: DIVMTQSPLSLPVTPGEPASISCRSSQSLVHSNRNTYLHWYQQKPGQAPRLLIYKVSNRFSGVPDRFSGSGSGTDFTLKISRVEAEDVGVYYCGQGTQVPYTFGQGTKLEIKRTVAAPSVFIFPPSDEQLKSGTASVVCLLNNFYPREAKVQWKVDNALQSGNSQESVTEQDSKDSTYSLSSTLTLSKADYEKHKVYACEVTHQGLSSPVTKSFNRGEC
B4: CE115HA000 Q50E one-arm antibody (antibody, human IgG1, kappa, L234A L235A, N297A, name in Kabat numbering)
heavy: QVQLVESGGGVVQPGRSLRLSCAASGFTFSNAWMHWVRQAPGKGLEWVAEIKAKSNNYATYYAESVKGRFTISRDDSKNSLYLQMNSLKTEDTAVYYCRYVHYGAYYGVDAWGQGTTVTVSSASTKGPSVFPLAPSSKSTSGGTAALGCLVKDYFPEPVTVSWNSGALTSGVHTFPAVLQSSGLYSLSSVVTVPSSSLGTQTYICNVNHKPSNTKVDKKVEPKSCDKTHTCPPCPAPEAAGGPSVFLFPPKPKDTLMISRTPEVTCVVVDVSHEDPEVKFNWYVDGVEVHNAKTKPREEQYASTYRVVSVLTVLHQDWLNGKEYKCKVSNKALPAPIEKTISKAKGQPREPQVYTLPPSRCELTKNQVSLSCAVKGFYPSDIAVEWESNGQPENNYKTTPPVLDSDGSFFLVSKLTVDKSRWQQGNVFSCSVMHEALHNHYTQKSLSLSPDYKDDDDK
chain: EPKSSDKTHTCPPCPAPELLGGPSVFLFPPKPKDTLMISRTPEVTCVVVDVSHEDPEVKFNWYVDGVEVHNAKTKPREEQYNSTYRVVSVLTVLHQDWLNGKEYKCKVSNKALPAPIEKTISKAKGQPREPQVCTLPPSRDELTKNQVSLWCLVKGFYPSDIAVEWESNGQPENNYKTTPPVLDSDGSFFLYSKLTVDKSRWQQGNVFSCSVMHEALHNRYTQKSLSLSP
light: DIVMTQSPLSLPVTPGEPASISCRSSQSLVHSNRNTYLHWYQQKPGQAPRLLIYKVSNRFSGVPDRFSGSGSGTDFTLKISRVEAEDVGVYYCGQGTQVPYTFGQGTKLEIKRTVAAPSVFIFPPSDEQLKSGTASVVCLLNNFYPREAKVQWKVDNALQSGNSQESVTEQDSKDSTYSLSSTLTLSKADYEKHKVYACEVTHQGLSSPVTKSFNRGEC
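Further: Single-residue variant antibodies injected as analyte over CD3ε homodimer immobilized by amine coupling, run at 25 °C in HBS-EP+ buffer.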

In this assay the target is T1, CD3ε homodimer protein (human, UniProt P07766 23-126, limits assumed, sulfo-tag or biotin label in the ECL assays; amine-coupled to the chip in SPR).
T1 construct: also called human CD3ε homodimer protein; CD3 (CD3ε)
T1 sequence (P07766 23-126 limits assumed): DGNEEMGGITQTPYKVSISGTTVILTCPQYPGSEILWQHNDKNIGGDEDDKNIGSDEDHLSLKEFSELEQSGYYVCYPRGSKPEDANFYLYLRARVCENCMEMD
Description: SPR Biacore T200; CD3ε homodimer on CM4 chip. (SPR reads the build-up and loss of mass on a sensor chip optically.)
B1: the “ratio of amounts bound Z=Y/X (altered form / CE115HA000)” value worked out at 0.73.

For the molecule B2, the “ratio of amounts bound Z=Y/X (altered form / CE115HA000)” value was 0.27.

B3: the “ratio of amounts bound Z=Y/X (altered form / CE115HA000)” value came out at 0.24.

With B4, the “ratio of amounts bound Z=Y/X (altered form / CE115HA000)” value was determined as 0.26.

Source of the values: patent publication US20260049138A1 (Chugai, published 2026).
